Measurements as given in article PMC3722153, “Refolding of a Thermostable Glyceraldehyde Dehydrogenase for Application in Synthetic Cascade Biomanufacturing” (PLoS ONE, 2013).

Legend:
[1] = biological target: the molecule itself; test: SEC; Superdex 200 gel filtration, calibrated with molecular mass standards; 50 mg lyophilized TaAlDH dissolved in 10 mL 20 mM TRIS pH 8; soluble and refolded preparations
purified protein [2] = substrate: NC(=O)c1ccc[n+]([C@@H]2O[C@H](COP(=O)(O)OP(=O)(O)OC[C@H]3O[C@@H](n4cnc5c(N)ncnc54)[C@H](OP(=O)(O)O)[C@@H]3O)[C@@H](O)[C@H]2O)c1; test: purified protein; type: biochemical, Thermoplasma acidophilum; details: 5 mM D-glyceraldehyde, 0-0.24 mM NADP+, 100 mM HEPES pH 6.2, 50°C, refolded enzyme 0.02 mg/mL, apparent, varied: cofactor
Excerpt: (§1) (glyceraldehyde dehydrogenase, aldehyde dehydrogenase from Thermoplasma acidophilum)

purified protein [3] = substrate: NC(=O)c1ccc[n+]([C@@H]2O[C@H](COP(=O)(O)OP(=O)(O)OC[C@H]3O[C@@H](n4cnc5c(N)ncnc54)[C@H](O)[C@@H]3O)[C@@H](O)[C@H]2O)c1; test: purified protein; type: biochemical, Thermoplasma acidophilum; details: 5 mM D-glyceraldehyde, 0-75 mM NAD+, 100 mM HEPES pH 6.2, 50°C, refolded enzyme 0.02 mg/mL, apparent, varied: cofactor
Excerpt: as §1

B1: glyceraldehyde dehydrogenase (aldehyde dehydrogenase) from Thermoplasma acidophilum (enzyme, UniProt Q9HK01 1-493, looked up)
chain: MDTKLYIDGQWVNSSSGKTVDKYSPVTGQVIGRFEAATRDDVDRAIDAAEDAFWAWNDLGSVERSKIIYRAKELIEKNRAELENIIMEENGKPVKEAKEEVDGVIDQIQYYAEWARKLNGEVVEGTSSHRKIFQYKVPYGIVVALTPWNFPAGMVARKLAPALLTGNTVVLKPSSDTPGSAEWIVRKFVEAGVPKGVLNFITGRGSEIGDYIVEHKKVNLITMTGSTATGQRIMQKASANMAKLILELGGKAPFMVWKDADMDNALKTLLWAKYWNAGQSCIAAERLYVHEDIYDTFMSRFVELSRKLALGDPKNADMGPLINKGALQATSEIVEEAKESGAKILFGGSQPSLSGPYRNGYFFLPTIIGNADQKSKIFQEEIFAPVIGARKISSVEEMYDLANDSKYGLASYLFTKDPNIIFEASERIRFGELYVNMPGPEASQGYHTGFRMTGQAGEGSKYGISEYLKLKNIYVDYSGKPLHINTVRDDLFQ
notes: glyceraldehyde dehydrogenase (TaAlDH) of Thermoplasma acidophilum; calculated mass 56 kDa (56.4 kDa); they are written as one molecule; also called TaAlDH; AlDH; source: E. coli BL21 (DE3)
[1]
  stoichiometry N: 2
Purified protein [2]
  Km: 0.022 ± 0.001 mM
  Vmax: 0.849 µmol/min/mg
Purified protein [3]
  Km: 22.13 ± 1.43 mM
  Vmax: 1.86 µmol/min/mg
